Test results as given in patent US7625734B2, “Glutamine:fructose-6-phosphate amidotransferase (GFAT) comprising an internal purification marker and use thereof for the screening of compounds” (Centre National de la Recherche Scientifique (CNRS), priority 2003, dated 2009).
Read-outs that look alike come from different tables or passages of the source.

B1: GFAT1-His6: human GFAT1 (SEQ ID NO: 2) in which a hexa-histidine purification tag is inserted between amino acids 299 and 300 (protein, UniProt Q06210 2-699, looked up)
Glutamine--fructose-6-phosphat …: CGIFAYLNYHVPRTRREILETLIKGLQRLEYRGYDSAGVGFDGGNDKDWEANACKIQLIKKKGKVKALDEEVHKQQDMDLDIEFDVHLGIAHTRWATHGEPSPVNSHPQRSDKNNEFIVIHNGIITNYKDLKKFLESKGYDFESETDTETIAKLVKYMYDNRESQDTSFTTLVERVIQQLEGAFALVFKSVHFPGQAVGTRRGSPLLIGVRSEHKLSTDHIPILYRTARTQIGSKFTRWGSQGERGKDKKGSCNLSRVDSTTCLFPVEEKAVEYYFASDASAVIEHTNRVIFLEDDDVAAVVDGRLSIHRIKRTAGDHPGRAVQTLQMELQQIMKGNFSSFMQKEIFEQPESVVNTMRGRVNFDDYTVNLGGLKDHIKEIQRCRRLILIACGTSYHAGVATRQVLEELTELPVMVELASDFLDRNTPVFRDDVCFFLSQSGETADTLMGLRYCKERGALTVGITNTVGSSISRETDCGVHINAGPEIGVASTKAYTSQFVSLVMFALMMCDDRISMQERRKEIMLGLKRLPDLIKEVLSMDDEIQKLATELYHQKSVLIMGRGYHYATCLEGALKIKEITYMHSEGILAGELKHGPLALVDKLMPVIMIIMRDHTYAKCQNALQQVVARQGRPVVICDKEDTETIKNTKRTIKVPHSVDCLQGILSVIPLQLLAFHLAVLRGYDVDFPRNLAKSVTVE
modifications: internal His6 tag
B2: recombinant human GFAT1: recombinant human GFAT1 purified by Broschat et al., J. Biol. Chem. (2002) 277:14764 (protein, UniProt Q06210 2-699, looked up)
Glutamine--fructose-6-phosphat …: B1 Glutamine--fructose-6-phosphat …

Tests used:
[1] = molecular target: T1, GFAT activity (Homo sapiens, UniProt Q06210, INS317HHHHHH); experiment: Morgan-Elson assay of GFAT1-His6 enzyme activity; type: biochemical; conditions: 30 minutes at 37° C.; D-glucosamine standard curve
T1 construct: made in house; host or cells: Sf9 insect cells (recombinant baculovirus)
T1 sequence (Q06210 with tags, fused parts or gaps isoform Q06210-2 INS299HHHHHH): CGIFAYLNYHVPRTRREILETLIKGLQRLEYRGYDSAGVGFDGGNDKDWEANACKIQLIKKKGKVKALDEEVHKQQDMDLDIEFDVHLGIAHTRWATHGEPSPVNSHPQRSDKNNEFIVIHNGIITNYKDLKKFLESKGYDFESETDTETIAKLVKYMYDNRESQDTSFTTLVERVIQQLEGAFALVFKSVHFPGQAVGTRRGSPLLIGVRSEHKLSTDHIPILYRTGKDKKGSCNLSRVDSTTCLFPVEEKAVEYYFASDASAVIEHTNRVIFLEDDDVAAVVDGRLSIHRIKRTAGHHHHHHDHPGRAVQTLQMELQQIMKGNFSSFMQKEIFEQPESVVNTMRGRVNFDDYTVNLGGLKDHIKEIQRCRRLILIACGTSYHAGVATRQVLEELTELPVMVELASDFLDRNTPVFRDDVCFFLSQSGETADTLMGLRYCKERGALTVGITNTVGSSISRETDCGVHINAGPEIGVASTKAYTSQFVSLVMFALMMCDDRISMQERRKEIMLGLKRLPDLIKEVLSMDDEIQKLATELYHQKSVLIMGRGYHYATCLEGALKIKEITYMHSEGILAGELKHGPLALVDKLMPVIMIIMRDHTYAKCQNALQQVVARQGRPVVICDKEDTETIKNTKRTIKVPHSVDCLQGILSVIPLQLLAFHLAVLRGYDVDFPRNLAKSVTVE
Description: In this case the enzyme activity is monitored by a colorimetric test the principle of which is the following: the D-glucosamine-6P released by the enzyme is N-acetylated by acetic anhydride in alkaline medium (Ghosh et al., Method. Enzymol. (1962) 5:414), then the solution is treated with Ehrlich's reagent (para-dimethyl-amino-benzaldehyde, PDAB) in concentrated acid medium; the pink compound formed absorbs at 585 nm.
The enzymatic reaction takes place over 30 minutes at 37° C. in the presence of: • 0.2 ml of 100 mM fructose-6P • 0.25 ml of 60 mM L-Glutamine • 0.25 ml of 150 mM KPO4 buffer, pH 7 • 0.1 ml of 25 mM EDTA (ethylene diamine tetra-acetate), pH 7 • up to 200 μl of sample (to be completed with H2O if necessary)
The reaction is stopped by immersion for 4 minutes in a water bath at 100° C. then centrifuged. […]
The activity of the GFAT was determined by comparison with a standard curve established using D-glucosamine as standard in a concentration range of 0 to 200 nmoles. The specific activity of the GFAT1-His6 obtained was thus measured at 1.7 U/mg. […]

[2] = molecular target: T1, GFAT activity; experiment: APAD assay (spectrophotometric assay coupled with glutamate dehydrogenase); type: biochemical
Description: The kinetic parameters of GFAT1-His6 have been characterized vis-à-vis glutamine (Km^Gln=0.2 mM) and fructose-6P (F6P) (Km^F6P=0.006 mM) by a spectrophotometric assay coupled with glutamate dehydrogenase according to the APAD test. This is in accordance with the values cited in the prior art (Km^Gln=0.26 mM and Km^F6P=0.007 mM for Broschat et al., J. Biol. Chem. (2002) 277:14764).
This is an ultraviolet spectrophotometric assay of the GFAT activity. It is based on the continuous determination of the quantity of L-glutamate formed using GFAT and an analogue of NAD (nicotinamide adenine dinucleotide), APAD (3-acetylpyridine adenine dinucleotide), according to the following reaction (catalyzed by glutamate dehydrogenase (GDH)):
The measurement is carried out at 365 nm, at 37° C. Under these conditions an absorbance unit corresponds to 0.11 μmole of APADH formed.
The test comprises: • 100 μl 3 mM APAD (2 mg/ml) • 25 μl 2M KCl • 100 μl of 1 M KPO4 buffer, pH 7.2 • 100 μl of 100 mM Fructose-6P (30.41 mg/ml) • 100 μl of 60 mM purified L-Glutamine (8.77 mg/ml) • H2O qsf 1 ml (taking into account the volumes to be added hereafter) • 50 μl GDH • sample to be assayed: 0.5 μg

[3] = test system: GFAT activity; conditions: value obtained by Broschat et al., J. Biol. Chem. (2002) 277:14764; cited from earlier work

Row | Molecule | specific activity [1] [U/mg] | Km ([2]; vis-à-vis fructose-6P, read-out: Km F6P) [µM] | Km ([2]; vis-à-vis glutamine, read-out: Km Gln) [µM] | specific activity [3] [U/mg]
1 | B1 | 1.7 | 6 | 200 | 
2 | B2 |  |  |  | 0.4
